Here are results for 89 variants from IntAct's records for PubMed 29039417.

B1: Isoform 2 of Bardet-Biedl syndrome 7 protein (Homo sapiens), Q8IWZ6-2 (parent)
chain: MDLILNRMDYLQVGVTSQKTMKLIPASRHRATQKVVIGDHDGVVMCFGMKKGEAAAVFKTLPGPKIARLELGGVINTPQEKIFIAAASEIRGFTKRGKQFLSFETNLTESIKAMHISGSDLFLSASYIYNHYCDCKDQHYYLSGDKINDVICLPVERLSRITPVLACQDRVLRVLQGSDVMYAVEVPGPPTVLALHNGNGGDSGEDLLFGTSDGKLALIQITTSKPVRKWEIQNEKKRGGILCIDSFDIVGDGVKDLLVGRDDGMVEVYSFDNANEPVLRFDQMLSESVTSIQGGCVGKDSYDEIVVSTYSGWVTGLTTEPIHKESGPGEELKINQEMQNKISSLRNELEHLQYKVLQERENYQQSSQSSKAKSAVPSFGINDKFTLNKDDASYSLILEVQTAIDNVLIQSDVPIDLLDVDKNSAVVSFSSCDSESNDNFLLATYRCQADTTRLELKIRSIEGQYGTLQAYVTPRIQPKTCQVRQYHIKPLSLHQRTHFIDHDRPMNTLTLTGQFSFAEVHSWVVFCLPEVPEKPPAGECVTFYFQNTFLDTQLESTYRKGEGVFKSDNISTISILKDVLSKEATKRKINLNISYEINEVSVKHTLKLIHPKLEYQLLLAKKVQLIDALKELQIHEGNTNFLIPEYHCILEEADHLQEEYKKQPAHLERLYG
partner: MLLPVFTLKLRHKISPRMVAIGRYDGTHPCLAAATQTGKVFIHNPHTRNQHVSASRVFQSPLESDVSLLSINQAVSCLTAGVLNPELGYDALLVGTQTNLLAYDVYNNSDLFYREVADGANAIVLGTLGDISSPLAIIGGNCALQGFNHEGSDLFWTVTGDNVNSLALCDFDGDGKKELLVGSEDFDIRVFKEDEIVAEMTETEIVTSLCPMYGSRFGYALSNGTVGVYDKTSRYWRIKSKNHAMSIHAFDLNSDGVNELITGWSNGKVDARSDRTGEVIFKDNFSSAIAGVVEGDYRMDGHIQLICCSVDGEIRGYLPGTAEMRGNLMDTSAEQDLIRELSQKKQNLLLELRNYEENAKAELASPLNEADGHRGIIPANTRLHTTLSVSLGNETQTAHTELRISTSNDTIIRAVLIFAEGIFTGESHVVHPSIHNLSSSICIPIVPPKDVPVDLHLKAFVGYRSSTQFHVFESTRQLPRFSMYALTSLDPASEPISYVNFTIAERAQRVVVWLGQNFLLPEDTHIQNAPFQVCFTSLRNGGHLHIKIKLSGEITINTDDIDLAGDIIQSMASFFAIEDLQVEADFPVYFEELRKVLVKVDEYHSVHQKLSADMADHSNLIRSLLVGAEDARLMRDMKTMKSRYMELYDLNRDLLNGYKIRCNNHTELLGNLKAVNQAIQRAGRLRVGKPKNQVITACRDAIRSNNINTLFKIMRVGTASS

The first assay covers variants of B1. As to conditions: with bbs2_human BBS2, Q9BXC9.
Take L442E: the “effect of a mutation on the interaction” value is “with no effect”.

Regarding L442A, the “effect of a mutation on the interaction” value is given as “with no effect”.

Consider L442P, for which the “effect of a mutation on the interaction” value is “disrupting interaction strength”.

For the variant L442K, the “effect of a mutation on the interaction” value is “with no effect”.

As to I415E, the “effect of a mutation on the interaction” value is “with no effect”.

Turning to I415A, the “effect of a mutation on the interaction” value was “with no effect”.

Turning to I415K, the “effect of a mutation on the interaction” value was “with no effect”.

Regarding Y465A, the “effect of a mutation on the interaction” value is given as “with no effect”.

Turning to Y465E, the “effect of a mutation on the interaction” value is on record as “with no effect”.

Regarding Y465K, the “effect of a mutation on the interaction” value was “with no effect”.

For the variant V420K, the “effect of a mutation on the interaction” value was “with no effect”.

With V420E, the “effect of a mutation on the interaction” value is on record as “with no effect”.

V420A: the “effect of a mutation on the interaction” value is “with no effect”.

For T451K, the “effect of a mutation on the interaction” value is “with no effect”.

Regarding T451E, the “effect of a mutation on the interaction” value was “with no effect”.

Take T451A: the “effect of a mutation on the interaction” value is reported as “with no effect”.

On to A449T, for which the “effect of a mutation on the interaction” value is given as “disrupting interaction strength”.

On to A449K, for which the “effect of a mutation on the interaction” value is listed as “with no effect”.

Regarding A449E, the “effect of a mutation on the interaction” value is “with no effect”.

As for S424E, the “effect of a mutation on the interaction” value is “with no effect”.

With S424A, the “effect of a mutation on the interaction” value was “with no effect”.

For the variant S424K, the “effect of a mutation on the interaction” value was “with no effect”.

Regarding K457A, the “effect of a mutation on the interaction” value was “with no effect”.

On to K457E, for which the “effect of a mutation on the interaction” value is reported as “with no effect”.

T467A: the “effect of a mutation on the interaction” value is “with no effect”.

In the case of T467E, the “effect of a mutation on the interaction” value was “with no effect”.

For the variant T467K, the “effect of a mutation on the interaction” value is given as “with no effect”.

Q448E: the “effect of a mutation on the interaction” value was “with no effect”.

For the variant Q448A, the “effect of a mutation on the interaction” value was “with no effect”.

For the variant Q448K, the “effect of a mutation on the interaction” value is reported as “disrupting interaction strength”.

As for R453A, the “effect of a mutation on the interaction” value is “with no effect”.

Regarding R453E, the “effect of a mutation on the interaction” value is “with no effect”.

Turning to R453K, the “effect of a mutation on the interaction” value is recorded as “with no effect”.

As for S428K, the “effect of a mutation on the interaction” value is “with no effect”.

Turning to S428E, the “effect of a mutation on the interaction” value is reported as “with no effect”.

Regarding S428A, the “effect of a mutation on the interaction” value was “with no effect”.

Consider I458E, for which the “effect of a mutation on the interaction” value is reported as “disrupting interaction strength”.

I458K: the “effect of a mutation on the interaction” value is listed as “disrupting interaction strength”.

As for I458A, the “effect of a mutation on the interaction” value is reported as “disrupting interaction strength”.

Take I458Q: the “effect of a mutation on the interaction” value is listed as “disrupting interaction strength”.

With L456K, the “effect of a mutation on the interaction” value was “with no effect”.

As to L456E, the “effect of a mutation on the interaction” value is given as “with no effect”.

Turning to L456A, the “effect of a mutation on the interaction” value was “with no effect”.

L408A: the “effect of a mutation on the interaction” value is on record as “with no effect”.

Turning to L408K, the “effect of a mutation on the interaction” value is “with no effect”.

As for L408E, the “effect of a mutation on the interaction” value is given as “with no effect”.

With Q410E, the “effect of a mutation on the interaction” value is recorded as “with no effect”.

As to Q410A, the “effect of a mutation on the interaction” value is “with no effect”.

Consider Q410K, for which the “effect of a mutation on the interaction” value is reported as “with no effect”.

Take V407K: the “effect of a mutation on the interaction” value is “with no effect”.

D421K: the “effect of a mutation on the interaction” value is “with no effect”.

Take D421E: the “effect of a mutation on the interaction” value is listed as “with no effect”.

With D421A, the “effect of a mutation on the interaction” value is on record as “with no effect”.

Turning to T452K, the “effect of a mutation on the interaction” value was “with no effect”.

With T452E, the “effect of a mutation on the interaction” value was “with no effect”.

Take T452A: the “effect of a mutation on the interaction” value is listed as “with no effect”.

On to D433A, for which the “effect of a mutation on the interaction” value was “with no effect”.

Consider D433E, for which the “effect of a mutation on the interaction” value was “with no effect”.

D433K: the “effect of a mutation on the interaction” value was “with no effect”.

Consider N423K, for which the “effect of a mutation on the interaction” value is reported as “with no effect”.

Turning to N423E, the “effect of a mutation on the interaction” value is given as “with no effect”.

For N423A, the “effect of a mutation on the interaction” value was “with no effect”.

In the case of C447Y, the “effect of a mutation on the interaction” value is listed as “disrupting interaction strength”.

Turning to C447A, the “effect of a mutation on the interaction” value is on record as “with no effect”.

For C447E, the “effect of a mutation on the interaction” value is “with no effect”.

As to C447K, the “effect of a mutation on the interaction” value is “with no effect”.

Take L441E: the “effect of a mutation on the interaction” value was “with no effect”.

As for L441K, the “effect of a mutation on the interaction” value is reported as “with no effect”.

Consider L441A, for which the “effect of a mutation on the interaction” value is given as “with no effect”.

For N439K, the “effect of a mutation on the interaction” value is “with no effect”.

Regarding N439E, the “effect of a mutation on the interaction” value is on record as “with no effect”.

Turning to N439A, the “effect of a mutation on the interaction” value is “disrupting interaction strength”.

Turning to G466Y, the “effect of a mutation on the interaction” value is “disrupting interaction strength”.

Take G466E: the “effect of a mutation on the interaction” value is “disrupting interaction strength”.

Turning to G466K, the “effect of a mutation on the interaction” value is recorded as “with no effect”.

Take G466D: the “effect of a mutation on the interaction” value is reported as “disrupting interaction strength”.

With G466A, the “effect of a mutation on the interaction” value is on record as “with no effect”.

Consider R459E, for which the “effect of a mutation on the interaction” value is given as “with no effect”.

On to R459A, for which the “effect of a mutation on the interaction” value is given as “with no effect”.

On to R459K, for which the “effect of a mutation on the interaction” value is reported as “with no effect”.

Take D450A: the “effect of a mutation on the interaction” value was “with no effect”.

Take D450E: the “effect of a mutation on the interaction” value was “with no effect”.

Take D450K: the “effect of a mutation on the interaction” value is “with no effect”.

Regarding G463K, the “effect of a mutation on the interaction” value is on record as “with no effect”.

As for G463A, the “effect of a mutation on the interaction” value is listed as “with no effect”.

As to G463E, the “effect of a mutation on the interaction” value is recorded as “with no effect”.

V413K: the “effect of a mutation on the interaction” value is recorded as “with no effect”.

Consider V413E, for which the “effect of a mutation on the interaction” value is on record as “with no effect”.

On to V413A, for which the “effect of a mutation on the interaction” value is “with no effect”.

The variants in a further assay derive from B1. The following applies: with bbs2_human BBS2, Q9BXC9. The source holds these as a separate data set.
As to I458E, the “effect of a mutation on the interaction” value is “with no effect”.
